Reference: patent publication US20030087315A1 (MCP HAHNEMANN UNIVERSITY, published 2003)
No end group written: not given here. *: point of attachment. Biotin = O=C1N[C@H]2[C@H](CS[C@H]2CCCCC(=O)*)N1

B1: biotinylated N-telopeptide of α2 chain of human type I collagen (peptide, UniProt P08123 80-90, looked up)
peptide: Biotin-QYDGKGVGLGP
notes: domain: N-telopeptide; also called biotinylated α2 N-telopeptide
B2: biotinylated N-telopeptide of the α1 chain of human type I collagen (peptide)
peptide: Biotin-QLSYGYDEKSTGGISVP
notes: also called biotinylated α1 N-telopeptide
B3: biotinylated C-telopeptide of α2 chain of human type I collagen (peptide)
peptide: Biotin-GGGYDFGYDGDFYRA
notes: also called biotinylated F3

Experiments:
[1] = target: T1, α2(I) chain of type I collagen (mouse, UniProt Q01149 97-1110, limits assumed); test: filter binding assay, electroblotted chains, avidin-peroxidase
T1 construct: Denatured chain on a nitrocellulose filter; pepsin-treated collagen
T1 sequence (Q01149 97-1110 limits assumed): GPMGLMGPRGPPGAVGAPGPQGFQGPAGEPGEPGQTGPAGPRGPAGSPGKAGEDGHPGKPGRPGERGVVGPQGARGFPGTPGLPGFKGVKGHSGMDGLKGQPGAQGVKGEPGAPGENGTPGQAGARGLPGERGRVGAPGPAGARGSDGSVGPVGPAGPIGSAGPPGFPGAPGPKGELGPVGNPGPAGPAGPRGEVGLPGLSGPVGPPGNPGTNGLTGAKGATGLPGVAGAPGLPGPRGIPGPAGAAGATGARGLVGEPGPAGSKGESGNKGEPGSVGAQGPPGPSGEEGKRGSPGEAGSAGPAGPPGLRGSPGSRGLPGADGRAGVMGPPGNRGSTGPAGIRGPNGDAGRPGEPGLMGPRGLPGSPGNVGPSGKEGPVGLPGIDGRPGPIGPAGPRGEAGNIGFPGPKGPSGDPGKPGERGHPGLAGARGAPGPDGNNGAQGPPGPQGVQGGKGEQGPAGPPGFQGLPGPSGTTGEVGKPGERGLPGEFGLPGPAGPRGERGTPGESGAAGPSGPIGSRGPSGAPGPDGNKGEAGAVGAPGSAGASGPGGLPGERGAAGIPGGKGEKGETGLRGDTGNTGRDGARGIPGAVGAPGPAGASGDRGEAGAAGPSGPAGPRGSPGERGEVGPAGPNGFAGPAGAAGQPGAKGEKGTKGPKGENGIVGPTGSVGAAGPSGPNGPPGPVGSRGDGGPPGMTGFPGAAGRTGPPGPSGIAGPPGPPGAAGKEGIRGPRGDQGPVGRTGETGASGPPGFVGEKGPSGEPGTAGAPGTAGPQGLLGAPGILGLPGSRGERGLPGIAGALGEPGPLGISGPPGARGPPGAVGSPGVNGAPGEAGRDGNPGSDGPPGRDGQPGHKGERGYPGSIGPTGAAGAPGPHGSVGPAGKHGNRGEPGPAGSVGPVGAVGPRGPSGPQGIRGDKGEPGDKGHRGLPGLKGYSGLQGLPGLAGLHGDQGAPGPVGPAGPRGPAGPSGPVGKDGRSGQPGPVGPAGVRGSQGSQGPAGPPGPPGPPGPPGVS
Description: (§1) The α1(I) and α2(I) chains of type I collagen or CNBr fragments of the chains were separated by polyacrylamide gel electrophoresis and electroblotted onto filters. The filters were then hybridized with a biotinylated telopeptide followed by assay of the washed filter with streptavidin-horseradish peroxidase. “CNBr+” indicates α1(I) or α2(I) chains which were digested with cyanogen bromide.
Type I collagen extracted with 0.5 M acetic acid from mouse skin was digested with pepsin, and the a chains separated by gel electrophoresis in SDS. To generate CNBr peptides, gel slices containing α1(1) and α2(I) chains were placed into tubes and a chains were digested with 10 mg/ml or 200 mg/ml CNBr in 70% formic acid at room temperature overnight. The gel slices were equilibrated with 0.05 mM Tris-HCl buffer (pH 6.8) over 3 hours. Gel pieces containing CNBr peptides derived from individual collagen a chains were transferred into the wells of the second gel prepared with a 6% polyacrylamide stacking gel and 12% polyacrylamide separating gel with 0.5 M urea. After electrophoresis, the gel was electroblotted overnight at 4° C. onto a nitrocellulose filter (Millipore). To study binding of telopeptides to collagen fragments, the method described by Fujisawa et al. (Fujisawa et al., 1994, Calcif. Tiss. Int. 56:140-144) was used. The filters were blocked with 1% bovine serum albumin (Sigma) and then incubated overnight with 20 ml of 5 mg/ml peptide that was substituted at the N-terminus with biotin (synthesized for us by American Peptide Company, Inc.). The filter was washed three times with Tris-buffered saline containing 0.02% Tween (TBST) and incubated 30 min with a 1:30,000 dilution of horseradish peroxidase conjugated with avidin (Sigma). The bands were detected by chemiluminescence (ECL; Amersham) after exposure to an X-ray film for 3 to 10 min.

[2] = target: T2, α1(I) chain of type I collagen (mouse, UniProt P11087 168-1181, limits assumed); test: electroblot assay, FIG. 5C
T2 construct: Denatured chain on a nitrocellulose filter; pepsin-treated collagen; also called α1 chain
T2 sequence (P11087 168-1181 limits assumed): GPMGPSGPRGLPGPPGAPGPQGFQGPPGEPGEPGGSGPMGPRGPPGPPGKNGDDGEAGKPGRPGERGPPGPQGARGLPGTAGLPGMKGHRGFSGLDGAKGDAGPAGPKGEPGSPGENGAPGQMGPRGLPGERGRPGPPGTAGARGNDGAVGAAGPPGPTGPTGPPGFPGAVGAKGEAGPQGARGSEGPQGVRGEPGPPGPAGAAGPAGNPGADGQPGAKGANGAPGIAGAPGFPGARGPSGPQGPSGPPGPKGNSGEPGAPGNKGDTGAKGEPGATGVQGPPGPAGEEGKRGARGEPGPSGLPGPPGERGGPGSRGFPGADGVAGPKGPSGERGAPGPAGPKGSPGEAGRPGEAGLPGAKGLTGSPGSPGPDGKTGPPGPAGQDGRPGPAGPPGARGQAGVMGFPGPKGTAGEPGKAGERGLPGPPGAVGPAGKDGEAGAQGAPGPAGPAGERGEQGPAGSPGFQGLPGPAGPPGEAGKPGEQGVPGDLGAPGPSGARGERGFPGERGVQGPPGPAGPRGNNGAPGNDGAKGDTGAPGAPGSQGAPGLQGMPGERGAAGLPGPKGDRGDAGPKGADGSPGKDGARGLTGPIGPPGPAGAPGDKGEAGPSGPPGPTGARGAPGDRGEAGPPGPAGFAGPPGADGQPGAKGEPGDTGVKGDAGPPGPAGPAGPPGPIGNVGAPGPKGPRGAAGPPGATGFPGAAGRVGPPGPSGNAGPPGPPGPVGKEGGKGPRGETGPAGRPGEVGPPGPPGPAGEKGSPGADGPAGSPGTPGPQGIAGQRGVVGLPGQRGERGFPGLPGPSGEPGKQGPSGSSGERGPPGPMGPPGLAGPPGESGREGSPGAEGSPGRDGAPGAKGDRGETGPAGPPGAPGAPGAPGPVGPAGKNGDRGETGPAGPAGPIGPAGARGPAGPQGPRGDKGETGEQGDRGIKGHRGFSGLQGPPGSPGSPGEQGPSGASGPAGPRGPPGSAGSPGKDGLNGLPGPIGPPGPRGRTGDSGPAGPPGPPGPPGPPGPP
Description: as §1
(§2) Type I collagen extracted with 0.5 M acetic acid from mouse skin was digested with pepsin, and the a chains separated by gel electrophoresis in SDS. To generate CNBr peptides, gel slices containing α1(1) and α2(I) chains were placed into tubes and a chains were digested with 10 mg/ml or 200 mg/ml CNBr in 70% formic acid at room temperature overnight. The gel slices were equilibrated with 0.05 mM Tris-HCl buffer (pH 6.8) over 3 hours. Gel pieces containing CNBr peptides derived from individual collagen a chains were transferred into the wells of the second gel prepared with a 6% polyacrylamide stacking gel and 12% polyacrylamide separating gel with 0.5 M urea. After electrophoresis, the gel was electroblotted overnight at 4° C. onto a nitrocellulose filter (Millipore). […] The bands were detected by chemiluminescence (ECL; Amersham) after exposure to an X-ray film for 3 to 10 min.

[3] = target: T2, α1(I) chain of type I collagen; test: electroblot assay, FIG. 5B
Description: as §1, §2

Row | Binder | binding result [1] | binding result [2] | binding result [3]
1 | B1 | no binding (tested: 5 mg/ml peptide (so in the source)) |  | 
2 | B2 | no binding (tested: 5 mg/ml peptide (so in the source)) | binds | 
3 | B3 | no binding (tested: 5 mg/ml peptide (so in the source)) |  | binds
